Reference: PMC12800238

How the values were obtained:
[1] = target: WEEV strain California virus-like particles (Western equine encephalitis virus, strain California); assay: ELISA
[2] = target: WEEV California E1 domain III fused to human IgG1 Fc (Western equine encephalitis virus, strain California); assay: BLI
[3] = target: human VLDLR LA1 fused to human IgG1 Fc (human) (UniProt P98155); assay: BLI
[4] = target: human VLDLR LA2 fused to human IgG1 Fc (human) (UniProt P98155); assay: BLI
[5] = target: human VLDLR LA3 fused to human IgG1 Fc (human) (UniProt P98155); assay: BLI
[6] = target: human VLDLR LA5 fused to human IgG1 Fc (human) (UniProt P98155); assay: BLI

“human VLDLR LA3 fused to human IgG1 Fc (from UniProt P98155-1 111-151) (Fc fusion)” showed a Kd [1] of 10900 nM.

With “human VLDLR LA5 with 6x His tag (from UniProt P98155-1 191-236) (domain or fragment)” the Kd [2] was 808 nM.

For “human VLDLR LA1-3 fused to human IgG1 Fc (from UniProt P98155-1 28-152) (Fc fusion)”, the Kd [1] was 470 nM.

“WEEV strain California virus-like particles (complex)” was tested, and the Kd [3] was 0.11 nM, the Kd [4] was 1.59 nM and the Kd [5] was 6.09 nM. For the same substance, the Kd [6] was 0.37 nM.

Work on “human VLDLR LA1-2 fused to human IgG1 Fc (from UniProt P98155-1 28-113) (Fc fusion)” yielded a Kd [1] of 1630 nM.

“human VLDLR LA1-5 fused to human IgG1 Fc (from UniProt P98155-1 28-236) (Fc fusion)” gave a Kd [1] of 410 nM.

Substance “human VLDLR LA3 with 6x His tag (from UniProt P98155-1 111-151) (domain or fragment)” has a Kd [2] of 830 nM.

In the case of “human VLDLR LA5 fused to human IgG1 Fc (from UniProt P98155-1 191-236) (Fc fusion)”, the Kd [1] is reported as 7770 nM.

“human VLDLR ligand-binding domain (LA1-8) fused to human IgG1 Fc (from UniProt P98155-1 28-355) (Fc fusion)” showed a Kd [1] of 1210 nM.
